Consider two molecules from patent publication US20230250154A1 (CYTONICS, published 2023).

Some targets named below: Elastase; MMP8 (human, UniProt P22894 101-467, limits assumed); MMP13 (human, UniProt P45452 104-471, limits assumed); MMP3 (human, UniProt P08254 100-477, limits assumed); MMP9 (human, UniProt P14780 107-707, limits assumed).
Test in all cases: cell-based or functional assay
In a further test the target is T1, ADAMTS5 (human, UniProt Q9UNA0 262-622, limits assumed).
T1 sequence (looked up): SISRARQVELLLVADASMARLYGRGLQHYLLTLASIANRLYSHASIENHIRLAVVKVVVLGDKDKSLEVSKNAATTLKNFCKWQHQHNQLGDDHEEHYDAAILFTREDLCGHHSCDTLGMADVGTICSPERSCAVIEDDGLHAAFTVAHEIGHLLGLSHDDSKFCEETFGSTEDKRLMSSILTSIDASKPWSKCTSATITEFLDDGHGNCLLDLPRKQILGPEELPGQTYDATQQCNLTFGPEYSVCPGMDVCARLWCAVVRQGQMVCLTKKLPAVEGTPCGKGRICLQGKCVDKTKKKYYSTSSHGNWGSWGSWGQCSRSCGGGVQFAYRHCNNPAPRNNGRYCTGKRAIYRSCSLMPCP

For a further test, the target named is T2, MMP7 (UniProt P09237 95-267, limits assumed).
T2 sequence (looked up): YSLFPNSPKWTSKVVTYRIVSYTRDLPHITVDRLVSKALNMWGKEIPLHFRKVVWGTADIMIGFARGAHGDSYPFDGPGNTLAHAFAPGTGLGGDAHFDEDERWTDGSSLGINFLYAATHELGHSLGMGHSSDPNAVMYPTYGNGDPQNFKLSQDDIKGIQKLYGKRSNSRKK

In the next test the target is T3, MMP1 (human, UniProt P03956 100-469, limits assumed).
T3 sequence (looked up): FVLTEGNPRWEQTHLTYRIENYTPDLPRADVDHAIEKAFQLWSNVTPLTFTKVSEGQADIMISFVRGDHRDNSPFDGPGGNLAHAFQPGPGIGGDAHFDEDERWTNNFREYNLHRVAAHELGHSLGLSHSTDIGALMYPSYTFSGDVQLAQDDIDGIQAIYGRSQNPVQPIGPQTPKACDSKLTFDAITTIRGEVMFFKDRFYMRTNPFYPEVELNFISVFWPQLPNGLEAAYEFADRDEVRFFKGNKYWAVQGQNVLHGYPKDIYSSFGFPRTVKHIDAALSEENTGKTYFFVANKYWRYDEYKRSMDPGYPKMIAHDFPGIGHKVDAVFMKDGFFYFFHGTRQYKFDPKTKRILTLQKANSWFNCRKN

The next test concerns the target T4, Cathepsin G (UniProt P08311 21-244).
T4 sequence (looked up): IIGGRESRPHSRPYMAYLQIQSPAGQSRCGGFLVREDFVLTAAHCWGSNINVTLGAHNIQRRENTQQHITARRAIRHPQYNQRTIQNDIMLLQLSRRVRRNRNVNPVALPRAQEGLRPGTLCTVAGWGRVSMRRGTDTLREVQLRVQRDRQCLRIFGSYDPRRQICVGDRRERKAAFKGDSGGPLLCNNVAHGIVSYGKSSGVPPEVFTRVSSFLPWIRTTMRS

The target in the next test is T5, MMP2 (human, UniProt P08253 110-660, limits assumed).
T5 sequence (looked up): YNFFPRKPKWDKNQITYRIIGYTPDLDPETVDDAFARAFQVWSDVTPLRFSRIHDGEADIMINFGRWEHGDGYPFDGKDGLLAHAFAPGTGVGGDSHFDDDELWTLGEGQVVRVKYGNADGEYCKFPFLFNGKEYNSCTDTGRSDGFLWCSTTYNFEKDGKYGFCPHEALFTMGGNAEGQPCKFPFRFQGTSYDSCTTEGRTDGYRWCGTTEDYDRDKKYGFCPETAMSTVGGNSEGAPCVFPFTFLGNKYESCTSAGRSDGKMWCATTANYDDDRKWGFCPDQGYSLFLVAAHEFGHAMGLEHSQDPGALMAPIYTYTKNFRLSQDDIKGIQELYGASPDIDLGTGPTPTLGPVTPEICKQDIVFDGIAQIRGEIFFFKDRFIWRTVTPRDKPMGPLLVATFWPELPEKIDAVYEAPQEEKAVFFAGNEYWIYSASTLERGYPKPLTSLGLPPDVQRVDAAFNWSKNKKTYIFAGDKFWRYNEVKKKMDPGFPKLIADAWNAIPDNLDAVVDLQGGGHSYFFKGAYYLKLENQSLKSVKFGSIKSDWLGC

MMP8, sequence (P22894 101-467 limits assumed): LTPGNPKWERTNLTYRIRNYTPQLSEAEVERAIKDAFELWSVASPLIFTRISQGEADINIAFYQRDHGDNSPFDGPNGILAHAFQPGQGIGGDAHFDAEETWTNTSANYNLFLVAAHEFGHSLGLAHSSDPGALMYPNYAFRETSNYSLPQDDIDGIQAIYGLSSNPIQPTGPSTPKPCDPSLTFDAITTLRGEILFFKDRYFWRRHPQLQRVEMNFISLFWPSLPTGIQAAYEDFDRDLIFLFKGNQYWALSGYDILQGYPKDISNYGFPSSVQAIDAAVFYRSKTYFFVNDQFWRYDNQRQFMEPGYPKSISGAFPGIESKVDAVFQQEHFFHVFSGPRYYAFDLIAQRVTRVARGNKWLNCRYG
MMP9, sequence (P14780 107-707 limits assumed): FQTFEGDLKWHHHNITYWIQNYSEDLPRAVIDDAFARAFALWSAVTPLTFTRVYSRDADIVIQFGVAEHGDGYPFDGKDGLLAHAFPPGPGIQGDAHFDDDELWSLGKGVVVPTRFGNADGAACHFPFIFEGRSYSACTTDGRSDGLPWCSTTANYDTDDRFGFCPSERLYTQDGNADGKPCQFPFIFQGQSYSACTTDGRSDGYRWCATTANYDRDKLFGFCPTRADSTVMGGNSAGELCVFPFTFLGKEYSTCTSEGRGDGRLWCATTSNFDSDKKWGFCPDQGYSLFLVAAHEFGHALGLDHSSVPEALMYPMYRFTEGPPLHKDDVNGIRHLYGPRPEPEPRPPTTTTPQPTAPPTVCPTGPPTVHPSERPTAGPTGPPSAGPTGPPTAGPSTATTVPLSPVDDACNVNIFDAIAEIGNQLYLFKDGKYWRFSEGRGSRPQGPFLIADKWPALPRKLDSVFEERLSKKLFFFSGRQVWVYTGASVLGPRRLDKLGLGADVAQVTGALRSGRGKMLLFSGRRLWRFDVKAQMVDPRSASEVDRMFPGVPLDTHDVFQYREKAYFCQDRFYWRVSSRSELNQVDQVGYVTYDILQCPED
MMP3, sequence (P08254 100-477 limits assumed): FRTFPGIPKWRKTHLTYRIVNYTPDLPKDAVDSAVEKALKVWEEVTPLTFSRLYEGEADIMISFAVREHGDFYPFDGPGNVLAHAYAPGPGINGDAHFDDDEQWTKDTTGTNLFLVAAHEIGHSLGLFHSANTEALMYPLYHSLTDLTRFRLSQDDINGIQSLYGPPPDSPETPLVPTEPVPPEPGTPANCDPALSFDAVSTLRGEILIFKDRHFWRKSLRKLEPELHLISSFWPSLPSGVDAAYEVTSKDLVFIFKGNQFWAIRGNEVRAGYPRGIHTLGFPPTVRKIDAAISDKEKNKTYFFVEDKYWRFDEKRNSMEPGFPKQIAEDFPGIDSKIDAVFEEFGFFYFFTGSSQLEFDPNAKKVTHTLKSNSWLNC

B1: Variant A2M, bait region SEQ ID NO 16 (other)
chain: SVSGKPQYMVLVPSLLHTETTEKGCVLLSYLNETVTVSASLESVRGNRSLFTDLEAENDVLHCVAFAVPKSSSNEEVMFLTVQVKGPTQEFKKRTTVMVKNEDSLVFVQTDKSIYKPGQTVKFRVVSMDENFHPLNELIPLVYIQDPKGNRIAQWQSFQLEGGLKQFSFPLSSEPFQGSYKVVVQKKSGGRTEHPFTVEEFVLPKFEVQVTVPKIITILEEEMNVSVCGLYTYGKPVPGHVTVSICRKYSDASDCHGEDSQAFCEKFSGQLNSHGCFYQQVKTKVFQLKRKEYEMKLHTEAQIQEEGTVVELTGRQSSEITRTITKLSFVKVDSHFRQGIPFFGQVRLVDGKGVPIPNKVIFIRGNEANYYSNATTDEHGLVQFSINTTNVMGTSLTVRVNYKDRSPCYGYQWVSEEHEEAHHTAYLVFSPSKSFVHLEPMSHELPCGHTQTVQAHYILNGGTLLGLKKLSFYYLIMAKGGIVRTGTHGLLVKQEDMKGHFSISIPVKSDIAPVARLLIYAVLPTGDVIGDSAKYDVENCLANKVDLSFSPSQSLPASHAHLRVTAAPQSVCALRAVDQSVLLMKPDAELSASSVYNLLPEKDLTGFPGPLNDQDDEDCINRHNVYINGITYTPVSSTNEKDMYSFLEDMGLKAFTNSKIRKPKMCPQLEHGPEFRGVTRYLTAIPENFYGVSELEGRGSSEDLVVQIVEEPHTKLRKYFPETWIWDLVVVNSAGVAEVGVTVPDTITEWKAGAFCLSEDAGLGISSTASLRAFQPFFVELTMPYSVIRGEAFTLKATVLNYLPKCIRVSVQLEASPAFLAVPVEKEQAPHCICANGRQTVSWAVTPKSLGNVNFTVSAEALESQELCGTEVPSVPEHGRKDTVIKPLLVEPEGLEKETTFNSLLCPSGGEVSEELSLKLPPNVVEESARASVSVLGDILGSAMQNTQNLLQMPYGCGEQNMVLFAPNIYVLDYLNETQQLTPEIKSKAIGYLNTGYQRQLNYKHYDGSYSTFGERYGRNQGNTWLTAFVLKTFAQARAYIFIDEAHITQALIWLSQRQKDNGCFRSSGSLLNNAIKGGVEDEVTLSAYITIALLEIPLTVTHPVVRNALFCLESAWKTAQEGDHGSHVYTKALLAYAFALAGNQDKRKEVLKSLNEEAVKKDNSVHWERPQKPKAPVGHFYEPQAPSAEVEMTSYVLLAYLTAQPAPTSEDLTSATNIVKWITKQQNAQGGFSSTQDTVVALHALSKYGAATFTRTGKAAQVTIQSSGTFSSKFQVDNNNRLLLQQVSLPELPGEYSMKVTGEGCVYLQTSLKYNILPEKEEFPFALGVQTLPQTCDEPKAHTSFQISLSVSYTGSRSASNMAIVDVKMVSGFIPLKPTVKMLERSNHVSRTEVSSNHVLIYLDKVSNQTLSLFFTVLQDVPVRDLKPAIVKVYDYYETDEFAIAEYNAPCSKDLGNADYKDDDDKGASHHHHHH
On to B1, for which the “Protease Inhibition (% of WT)” value is 91 % of WT with Elastase; 305 % of WT in the test with ADAMTS5; 105 % of WT with MMP7; 92 % of WT with MMP8; 101 % of WT with MMP1; 104 % of WT with MMP13. The “Protease Inhibition (% of WT)” value was 180 % of WT with MMP3, 105 % of WT in the test with Cathepsin G, 84 % of WT with MMP9 and 92 % of WT with MMP2.

B2: Variant A2M, bait region SEQ ID NO 18 (other)
chain: SVSGKPQYMVLVPSLLHTETTEKGCVLLSYLNETVTVSASLESVRGNRSLFTDLEAENDVLHCVAFAVPKSSSNEEVMFLTVQVKGPTQEFKKRTTVMVKNEDSLVFVQTDKSIYKPGQTVKFRVVSMDENFHPLNELIPLVYIQDPKGNRIAQWQSFQLEGGLKQFSFPLSSEPFQGSYKVVVQKKSGGRTEHPFTVEEFVLPKFEVQVTVPKIITILEEEMNVSVCGLYTYGKPVPGHVTVSICRKYSDASDCHGEDSQAFCEKFSGQLNSHGCFYQQVKTKVFQLKRKEYEMKLHTEAQIQEEGTVVELTGRQSSEITRTITKLSFVKVDSHFRQGIPFFGQVRLVDGKGVPIPNKVIFIRGNEANYYSNATTDEHGLVQFSINTTNVMGTSLTVRVNYKDRSPCYGYQWVSEEHEEAHHTAYLVFSPSKSFVHLEPMSHELPCGHTQTVQAHYILNGGTLLGLKKLSFYYLIMAKGGIVRTGTHGLLVKQEDMKGHFSISIPVKSDIAPVARLLIYAVLPTGDVIGDSAKYDVENCLANKVDLSFSPSQSLPASHAHLRVTAAPQSVCALRAVDQSVLLMKPDAELSASSVYNLLPEKDLTGFPGPLNDQDDEDCINRHNVYINGITYTPVSSTNEKDMYSFLEDMGLKAFTNSKIRKPKMCPQLEHGPIPENFYGLEGEGEGEGEAIPMSIPRYLTAEFRGVTVEEPHTKLRKYFPETWIWDLVVVNSAGVAEVGVTVPDTITEWKAGAFCLSEDAGLGISSTASLRAFQPFFVELTMPYSVIRGEAFTLKATVLNYLPKCIRVSVQLEASPAFLAVPVEKEQAPHCICANGRQTVSWAVTPKSLGNVNFTVSAEALESQELCGTEVPSVPEHGRKDTVIKPLLVEPEGLEKETTFNSLLCPSGGEVSEELSLKLPPNVVEESARASVSVLGDILGSAMQNTQNLLQMPYGCGEQNMVLFAPNIYVLDYLNETQQLTPEIKSKAIGYLNTGYQRQLNYKHYDGSYSTFGERYGRNQGNTWLTAFVLKTFAQARAYIFIDEAHITQALIWLSQRQKDNGCFRSSGSLLNNAIKGGVEDEVTLSAYITIALLEIPLTVTHPVVRNALFCLESAWKTAQEGDHGSHVYTKALLAYAFALAGNQDKRKEVLKSLNEEAVKKDNSVHWERPQKPKAPVGHFYEPQAPSAEVEMTSYVLLAYLTAQPAPTSEDLTSATNIVKWITKQQNAQGGFSSTQDTVVALHALSKYGAATFTRTGKAAQVTIQSSGTFSSKFQVDNNNRLLLQQVSLPELPGEYSMKVTGEGCVYLQTSLKYNILPEKEEFPFALGVQTLPQTCDEPKAHTSFQISLSVSYTGSRSASNMAIVDVKMVSGFIPLKPTVKMLERSNHVSRTEVSSNHVLIYLDKVSNQTLSLFFTVLQDVPVRDLKPAIVKVYDYYETDEFAIAEYNAPCSKDLGNADYKDDDDKGASHHHHHH
In the case of B2, the “Protease Inhibition (% of WT)” value with Elastase is 86 % of WT; in the test with ADAMTS5, 154 % of WT; with MMP7, 102 % of WT; in the test with MMP8, 82 % of WT; in the test with MMP1, 91 % of WT; with MMP13, 117 % of WT. Further, the “Protease Inhibition (% of WT)” value in the test with MMP3 is 38 % of WT; in the test with Cathepsin G, 83 % of WT; in the test with MMP9, 53 % of WT; in the test with MMP2 it was 58 % of WT.
